# B1: KRT18 (parent)
# chain: KSQDLAKIMADIRAQYDELARKNR
# Variants of: B1
# Experiment: protein stability index of a GFP-peptide fusion (GPS, HEK-293T) (PSI 1-6); higher = more stable
# Conditions: c terminus: a fixed tail appended
# 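Further: lentivirally expressed fusions sorted by FACS into six bins by GFP to DsRed ratio, PSI derived from sequencing read proportions per bin multiplied by bin number.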
row,Variant,protein stability index
1,KSQDLFKIMADIRAQYDELARKNR [A6F],2.17
2,KSQDLQKIMADIRAQYDELARKNR [A6Q],3.14
3,KSQDLDKIMADIRAQYDELARKNR [A6D],2.8
4,KSQDLCKIMADIRAQYDELARKNR [A6C],2.66
5,KSQDLVKIMADIRAQYDELARKNR [A6V],2.29
6,KSQDLMKIMADIRAQYDELARKNR [A6M],2.33
7,KSQRLAKIMADIRAQYDELARKNR [D4R],2.68
8,KSQTLAKIMADIRAQYDELARKNR [D4T],1.76
9,KSQLLAKIMADIRAQYDELARKNR [D4L],1.72
10,KSQALAKIMADIRAQYDELARKNR [D4A],2.13
11,KSQILAKIMADIRAQYDELARKNR [D4I],2.1
12,KSQFLAKIMADIRAQYDELARKNR [D4F],2.25
13,KSQVLAKIMADIRAQYDELARKNR [D4V],1.61
14,KSQQLAKIMADIRAQYDELARKNR [D4Q],2.42
15,KSQDAAKIMADIRAQYDELARKNR [L5A],3.72
16,KSQDHAKIMADIRAQYDELARKNR [L5H],3.83
17,KSQDRAKIMADIRAQYDELARKNR [L5R],3.83
18,KSQDCAKIMADIRAQYDELARKNR [L5C],3.02
19,KSQDLACIMADIRAQYDELARKNR [K7C],2.63
20,KSQDLAEIMADIRAQYDELARKNR [K7E],2.47
21,KSQDLAHIMADIRAQYDELARKNR [K7H],2.73
22,KSQDLARIMADIRAQYDELARKNR [K7R],2.5
23,KSQDLAAIMADIRAQYDELARKNR [K7A],2.41
24,KSQDLAQIMADIRAQYDELARKNR [K7Q],2.43

row,Variant,protein stability index
1,KSQDLAKIMADIRAQYDILARKNR [E18I],2.23
2,KSQDLAKIMADIRAQYDDLARKNR [E18D],2.16
3,KSQDLAKIMADIRAQYDLLARKNR [E18L],2.38
4,KSQDLAKIMADIRAQYDNLARKNR [E18N],2.62
5,KSQDLAKIMADIRAQYDKLARKNR [E18K],1.99
6,KSQDLAKIMADIRAQYDYLARKNR [E18Y],3.24
7,KSQDLAKIMQDIRAQYDELARKNR [A10Q],2.89
8,KSQDLAKIMVDIRAQYDELARKNR [A10V],3.23
9,KSQDLAKIMRDIRAQYDELARKNR [A10R],2.4
10,KSQDLAKIMFDIRAQYDELARKNR [A10F],2.41
11,KSQDLAKIMPDIRAQYDELARKNR [A10P],4.14
12,KSQDLAKIMIDIRAQYDELARKNR [A10I],2.73
13,KSQDLAKIMYDIRAQYDELARKNR [A10Y],2.51
14,KSQDLAKIMADHRAQYDELARKNR [I12H],3.55
15,KSQDLAKIMADRRAQYDELARKNR [I12R],3.74
16,KSQDLAKIMADSRAQYDELARKNR [I12S],4.36
17,KSQDLAKIMADARAQYDELARKNR [I12A],4
18,KSQDLAKIMADQRAQYDELARKNR [I12Q],4.41
19,KSQDLAKIMADFRAQYDELARKNR [I12F],3.03
20,KSQDLAKIMADMRAQYDELARKNR [I12M],4.04
21,KSQDLAKIMADYRAQYDELARKNR [I12Y],3.55
22,KSQDLAKIMADPRAQYDELARKNR [I12P],4.56
23,KSQDLAKIMADCRAQYDELARKNR [I12C],3.23
24,KSQDLAKIMADIRAQYDELAWKNR [R21W],2.47

row,Variant,protein stability index
1,KSQDLAKIMADIRAQYDELANKNR [R21N],2.96
2,KSQDLAKIMADIRAQYDELAPKNR [R21P],3.55
3,KSQDLAKIMADIRAQYDELASKNR [R21S],2.95
4,KSQDLAKIMADIRAQYDELACKNR [R21C],2.68
5,KSQDLAKIMADIRAQYDELAKKNR [R21K],2.9
6,KSQDLAKIMADIRAQYDELAIKNR [R21I],3.24
7,KSQDLAKIMADIRAQYDELARFNR [K22F],2.43
8,KSQDLAKIMADIRAQYDELARYNR [K22Y],2.29
9,KSQDLAKIMADIRAQYDELARENR [K22E],3.04
10,KSQDLAKIMADIRAQYDELARDNR [K22D],3.35
11,KSQDLAKIMADIRAQYDELARQNR [K22Q],2.92
12,KSQDLAKIMADIRAQYDELARNNR [K22N],2.7
13,KSQDLAKIMADIRAQYDELARVNR [K22V],2.23
14,KSQDLAKIMADIRAQYDELARSNR [K22S],2.88
15,KSQDLAKIMADIRAQYDELARHNR [K22H],3.1
16,KSQDLAKVMADIRAQYDELARKNR [I8V],2.99
17,KSQDLAKNMADIRAQYDELARKNR [I8N],3.86
18,KSQDLAKCMADIRAQYDELARKNR [I8C],3.37
19,KSQDLAKGMADIRAQYDELARKNR [I8G],4.54
20,KSQDLAKTMADIRAQYDELARKNR [I8T],3.27
21,KSQDLAKYMADIRAQYDELARKNR [I8Y],3.23
22,KSQDLAKKMADIRAQYDELARKNR [I8K],3.79
23,KSQDLAKAMADIRAQYDELARKNR [I8A],3.06
24,KSQDLAKIMADIRAQYDELARKPR [N23P],3.52

row,Variant,protein stability index
1,KSQDLAKIMADIRAQYDELARKRR [N23R],2.5
2,KSQDLAKIMADIRAQYDELARKWR [N23W],2.33
3,KSQDLAKIMADIRAQYDELARKDR [N23D],3.86
4,KSQDLAKIMADIRAQYDELARKCR [N23C],3.06
5,KSQDLAKIMADIRAQYDELARKGR [N23G],2.61
6,KSQDLAKIMADIRAQRDELARKNR [Y16R],3.79
7,KSQDLAKIMADIRAQEDELARKNR [Y16E],4.37
8,KSQDLAKIMADIRAQNDELARKNR [Y16N],4.13
9,KSQDLAKIMADIRAQKDELARKNR [Y16K],3.93
10,KSQDLAKIMADIRAQPDELARKNR [Y16P],4.47
11,KSQDLAKIMADIRAQVDELARKNR [Y16V],3.58
12,KSQDLAKIMADIRAQGDELARKNR [Y16G],3.28
13,KSQDLAKIMADIRAQLDELARKNR [Y16L],3.65
14,KSQDLAKIMADIRAQYDEEARKNR [L19E],4.01
15,KSQDLAKIMADIRAQYDEIARKNR [L19I],3.12
16,KSQDLAKIMADIRAQYDESARKNR [L19S],3.71
17,KSQDLAKIMADIRAQYDEQARKNR [L19Q],3.59
18,KSQDLAKIMADIRAQYDEVARKNR [L19V],3.27
19,KSQDLAKIMADIRAQYDERARKNR [L19R],3.63
20,KSQDLAKIMADIRAQYDEPARKNR [L19P],2.98
21,KSQDLAKIMADIRAQYDEMARKNR [L19M],3.2
22,KSQDLAKIMADIRAQYLELARKNR [D17L],2.29

# — the supplement of paper PMC10567573
